Laboratory results from patent publication US20150344570A1 (published 2015).

T1: FcγRIIb (human, UniProt P31994 43-217)
T1 construct: extracellular domain; also called FcgRIIb; 2b
T1 sequence (looked up): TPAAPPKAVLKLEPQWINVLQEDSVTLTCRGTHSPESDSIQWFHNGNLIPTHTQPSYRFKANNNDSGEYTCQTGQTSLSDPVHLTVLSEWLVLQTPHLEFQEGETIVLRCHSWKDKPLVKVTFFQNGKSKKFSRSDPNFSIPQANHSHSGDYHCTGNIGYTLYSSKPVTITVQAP


Columns and labels:
FcγRIIIa [1] = target: T2, FcγRIIIa (human, UniProt P08637 17-208); assay: SPR (Biacore), relative binding
T2 construct: extracellular domain; also called FcgRIIIa; 3a

FcγRIIb = target: T1, FcγRIIb; assay: SPR (Biacore), relative binding
FcγRIIIa [2] = target: T2, FcγRIIIa; assay: SPR; He/Con_3a divided by He/Con_2b (FcγRIIIa against FcγRIIb)

T2 sequence (P08637 17-208): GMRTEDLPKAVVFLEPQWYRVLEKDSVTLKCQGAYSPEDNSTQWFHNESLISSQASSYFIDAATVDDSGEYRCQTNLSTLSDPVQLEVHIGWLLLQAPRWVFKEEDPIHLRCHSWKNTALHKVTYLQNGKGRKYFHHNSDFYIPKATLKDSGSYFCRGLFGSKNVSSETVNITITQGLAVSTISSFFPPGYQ

Binder	He/Con_3a (FcγRIIIa [1])	He/Con_2b (FcγRIIb)	He_3a/2b (IIIa/IIb) (FcγRIIIa [2]) [ratio]
GpH7-A5/GpH7-B3 variant D265_11K/GpL16-k0 (antibody, human IgG1, kappa, mutation in the GpH7-B3 chain only; also called He Ab) heavy 1: not shown heavy 2: not shown light: DIVMTQSPLSLPVTPGEPASISCQASESLVHSNRNTYLHWYLQKPGQSPQLLIYKVSNRFSGVPDRFSGSGSGTDFTLKISRVEAEDVGVYYCSQNTHVPPTFGQGTKVEIERTVAAPSVFIFPPSDEQLKSGTASVVCLLNNFYPREAKVQWKVDNALQSGNSQESVTEQDSKDSTYSLSSTLTLSKADYEKHKVYACEVTHQGLSSPVTKSFNRGEC	2.5 % of GpH7-A5/GpH7-B3/GpL16-k0	14.9 % of GpH7-A5/GpH7-B3/GpL16-k0	0.17
GpH7-A5/GpH7-B3 variant S267_07I/GpL16-k0 (antibody, human IgG1, kappa, mutation in the GpH7-B3 chain only; also called He Ab) heavy 1: not shown heavy 2: not shown light: DIVMTQSPLSLPVTPGEPASISCQASESLVHSNRNTYLHWYLQKPGQSPQLLIYKVSNRFSGVPDRFSGSGSGTDFTLKISRVEAEDVGVYYCSQNTHVPPTFGQGTKVEIERTVAAPSVFIFPPSDEQLKSGTASVVCLLNNFYPREAKVQWKVDNALQSGNSQESVTEQDSKDSTYSLSSTLTLSKADYEKHKVYACEVTHQGLSSPVTKSFNRGEC	25.2 % of GpH7-A5/GpH7-B3/GpL16-k0	192 % of GpH7-A5/GpH7-B3/GpL16-k0	0.13
GpH7-A5/GpH7-B3 variant S267_01G/GpL16-k0 (antibody, human IgG1, kappa, mutation in the GpH7-B3 chain only; also called He Ab) heavy 1: not shown heavy 2: not shown light: DIVMTQSPLSLPVTPGEPASISCQASESLVHSNRNTYLHWYLQKPGQSPQLLIYKVSNRFSGVPDRFSGSGSGTDFTLKISRVEAEDVGVYYCSQNTHVPPTFGQGTKVEIERTVAAPSVFIFPPSDEQLKSGTASVVCLLNNFYPREAKVQWKVDNALQSGNSQESVTEQDSKDSTYSLSSTLTLSKADYEKHKVYACEVTHQGLSSPVTKSFNRGEC	53.8 % of GpH7-A5/GpH7-B3/GpL16-k0	105 % of GpH7-A5/GpH7-B3/GpL16-k0	0.51
GpH7-A5/GpH7-B3 variant S267_04F/GpL16-k0 (antibody, human IgG1, kappa, mutation in the GpH7-B3 chain only; also called He Ab) heavy 1: not shown heavy 2: not shown light: DIVMTQSPLSLPVTPGEPASISCQASESLVHSNRNTYLHWYLQKPGQSPQLLIYKVSNRFSGVPDRFSGSGSGTDFTLKISRVEAEDVGVYYCSQNTHVPPTFGQGTKVEIERTVAAPSVFIFPPSDEQLKSGTASVVCLLNNFYPREAKVQWKVDNALQSGNSQESVTEQDSKDSTYSLSSTLTLSKADYEKHKVYACEVTHQGLSSPVTKSFNRGEC	11 % of GpH7-A5/GpH7-B3/GpL16-k0	48 % of GpH7-A5/GpH7-B3/GpL16-k0	0.23
GpH7-A5/GpH7-B3 variant D265_13S/GpL16-k0 (antibody, human IgG1, kappa, mutation in the GpH7-B3 chain only; also called He Ab) heavy 1: not shown heavy 2: not shown light: DIVMTQSPLSLPVTPGEPASISCQASESLVHSNRNTYLHWYLQKPGQSPQLLIYKVSNRFSGVPDRFSGSGSGTDFTLKISRVEAEDVGVYYCSQNTHVPPTFGQGTKVEIERTVAAPSVFIFPPSDEQLKSGTASVVCLLNNFYPREAKVQWKVDNALQSGNSQESVTEQDSKDSTYSLSSTLTLSKADYEKHKVYACEVTHQGLSSPVTKSFNRGEC	3.9 % of GpH7-A5/GpH7-B3/GpL16-k0	11.3 % of GpH7-A5/GpH7-B3/GpL16-k0	0.35
GpH7-A5/GpH7-B3 variant D265_14T/GpL16-k0 (antibody, human IgG1, kappa, mutation in the GpH7-B3 chain only; also called He Ab) heavy 1: not shown heavy 2: not shown light: DIVMTQSPLSLPVTPGEPASISCQASESLVHSNRNTYLHWYLQKPGQSPQLLIYKVSNRFSGVPDRFSGSGSGTDFTLKISRVEAEDVGVYYCSQNTHVPPTFGQGTKVEIERTVAAPSVFIFPPSDEQLKSGTASVVCLLNNFYPREAKVQWKVDNALQSGNSQESVTEQDSKDSTYSLSSTLTLSKADYEKHKVYACEVTHQGLSSPVTKSFNRGEC	4.3 % of GpH7-A5/GpH7-B3/GpL16-k0	16 % of GpH7-A5/GpH7-B3/GpL16-k0	0.27
GpH7-A5/GpH7-B3 variant S267_02A/GpL16-k0 (antibody, human IgG1, kappa, mutation in the GpH7-B3 chain only; also called He Ab) heavy 1: not shown heavy 2: not shown light: DIVMTQSPLSLPVTPGEPASISCQASESLVHSNRNTYLHWYLQKPGQSPQLLIYKVSNRFSGVPDRFSGSGSGTDFTLKISRVEAEDVGVYYCSQNTHVPPTFGQGTKVEIERTVAAPSVFIFPPSDEQLKSGTASVVCLLNNFYPREAKVQWKVDNALQSGNSQESVTEQDSKDSTYSLSSTLTLSKADYEKHKVYACEVTHQGLSSPVTKSFNRGEC	150 % of GpH7-A5/GpH7-B3/GpL16-k0	243 % of GpH7-A5/GpH7-B3/GpL16-k0	0.62
GpH7-A5/GpH7-B3 variant D265_16H/GpL16-k0 (antibody, human IgG1, kappa, mutation in the GpH7-B3 chain only; also called He Ab) heavy 1: not shown heavy 2: not shown light: DIVMTQSPLSLPVTPGEPASISCQASESLVHSNRNTYLHWYLQKPGQSPQLLIYKVSNRFSGVPDRFSGSGSGTDFTLKISRVEAEDVGVYYCSQNTHVPPTFGQGTKVEIERTVAAPSVFIFPPSDEQLKSGTASVVCLLNNFYPREAKVQWKVDNALQSGNSQESVTEQDSKDSTYSLSSTLTLSKADYEKHKVYACEVTHQGLSSPVTKSFNRGEC	13.6 % of GpH7-A5/GpH7-B3/GpL16-k0	38.3 % of GpH7-A5/GpH7-B3/GpL16-k0	0.35
GpH7-A5/GpH7-B3 variant D265_20W/GpL16-k0 (antibody, human IgG1, kappa, mutation in the GpH7-B3 chain only; also called He Ab) heavy 1: not shown heavy 2: not shown light: DIVMTQSPLSLPVTPGEPASISCQASESLVHSNRNTYLHWYLQKPGQSPQLLIYKVSNRFSGVPDRFSGSGSGTDFTLKISRVEAEDVGVYYCSQNTHVPPTFGQGTKVEIERTVAAPSVFIFPPSDEQLKSGTASVVCLLNNFYPREAKVQWKVDNALQSGNSQESVTEQDSKDSTYSLSSTLTLSKADYEKHKVYACEVTHQGLSSPVTKSFNRGEC	-0.5 % of GpH7-A5/GpH7-B3/GpL16-k0	1.1 % of GpH7-A5/GpH7-B3/GpL16-k0	-0.48
GpH7-A5/GpH7-B3 variant S267_03V/GpL16-k0 (antibody, human IgG1, kappa, mutation in the GpH7-B3 chain only; also called He Ab) heavy 1: not shown heavy 2: not shown light: DIVMTQSPLSLPVTPGEPASISCQASESLVHSNRNTYLHWYLQKPGQSPQLLIYKVSNRFSGVPDRFSGSGSGTDFTLKISRVEAEDVGVYYCSQNTHVPPTFGQGTKVEIERTVAAPSVFIFPPSDEQLKSGTASVVCLLNNFYPREAKVQWKVDNALQSGNSQESVTEQDSKDSTYSLSSTLTLSKADYEKHKVYACEVTHQGLSSPVTKSFNRGEC	30.8 % of GpH7-A5/GpH7-B3/GpL16-k0	192 % of GpH7-A5/GpH7-B3/GpL16-k0	0.16
